Assay results published in patent US20260193348A1 (ANTENGENE BIOLOGICS, published 2026).
Residue numbers refer to the chain shown, from its start. Numbers in names are those of the source.

B1: Bis-108+147-S31R.H (bispecific antibody)
heavy 1: not shown
heavy 2: EVQLVQSGAEVKKPGASVKVSCKASGYTFTSYVIHWVRQAPGQGLEWMGYFNPYNDGTKYNEEFKGRVTLTSDKSTSTAYMELRSLRSDDTAVYYCARGGVRRYFDVWGQGTTVTVSSASTKGPSVFPLAPSSKSTSGGTAALGCLVKDYFPEPVTVSWNSGALTSGVHTFPAVLQSSGLYSLSSVVTVPSSSLGTQTYICNVNHKPSNTKVDKKVEPKSCGGGGSGGGGSEVQLVQSGAEVKKPGSSVKVSCKASGYTFTRYWMHWVRQAPGQCLEWMGNINPSSGATNYNEKFKSRVTLTVDKSTSTAYMELSSLRSEDTAVYYCARDRSSQYYFDYWGQGTTVTVSSGGGGSGGGGSGGGGSGGGGSDIVMTQSPDSLAVSLGERATINCKSSQSLLNSRSRKNYLAWYQQKPGQPPKLLIYWASTRESGVPDRFSGSGSGTDFTLTISSLQAEDVAVYYCTQSYTLRTFGCGTKVEIKGGGGSGGGGSDKTHTCPPCPAPEAAGGPSVFLFPPKPKDTLMISRTPEVTCVVVDVSHEDPEVKFNWYVDGVEVHNAKTKPREEQYNSTYRVVSVLTVLHQDWLNGKEYKCKVSNKALPAPIEKTISKAKGQPREPQVCTLPPSREEMTKNQVSLSCAVKGFYPSDIAVEWESNGQPENNYKTTPPVLDSDGSFFLVSKLTVDKSRWQQGNVFSCSVMHEALHNHYTQKSLSLSPGK
light: DIQMTQSPSSLSASVGDRVTITCRASQDIGSNLNWLQQKPGKAIKRLIYATFGLDSGVPSRFSGSRSGTDFTLTISSLQPEDFATYYCQQYASFPYTFGGGTKVEIKRTVAAPSVFIFPPSDEQLKSGTASVVCLLNNFYPREAKVQWKVDNALQSGNSQESVTEQDSKDSTYSLSSTLTLSKADYEKHKVYACEVTHQGLSSPVTKSFNRGEC
notes: Fab-scFv-Fab format
B2: Bis-40E9-L2H9 (bispecific antibody)
heavy 1: not shown
heavy 2: EVQLVQSGAEVKKPGASVKVSCKASGYTFTSYVIHWVRQAPGQGLEWMGYFNPYNDGTKYNEEFKGRVTLTSDKSTSTAYMELRSLRSDDTAVYYCARGGVRRYFDVWGQGTTVTVSSASTKGPSVFPLAPSSKSTSGGTAALGCLVKDYFPEPVTVSWNSGALTSGVHTFPAVLQSSGLYSLSSVVTVPSSSLGTQTYICNVNHKPSNTKVDKKVEPKSCGGGGSGGGGSEVQLVQSGAEVKKPGSSVKVSCKASGYTFSSYVIHWVRQAPGQCLEWMGYINPYSDVIKYNEKFKGRVTLTSDKSTSTAYMELSSLRSEDTAVYYCARESFYSYDGFAYWGQGTLVTVSSGGGGSGGGGSGGGGSGGGGSEIVLTQSPDFQSVTPKEKVTITCSASSSVSYMHWYQQKPDQSPKRLIYDTSKLASGVPSRFSGSGSGTDFTLTINSLEAEDAATYYCQQWSSNPPTFGCGTKVEIKGGGGSGGGGSDKTHTCPPCPAPEAAGGPSVFLFPPKPKDTLMISRTPEVTCVVVDVSHEDPEVKFNWYVDGVEVHNAKTKPREEQYNSTYRVVSVLTVLHQDWLNGKEYKCKVSNKALPAPIEKTISKAKGQPREPQVCTLPPSREEMTKNQVSLSCAVKGFYPSDIAVEWESNGQPENNYKTTPPVLDSDGSFFLVSKLTVDKSRWQQGNVFSCSVMHEALHNHYTQKSLSLSPGK
light: B1 light
notes: Fab-scFv-Fab format with LALA mutations
B3: Bis-40E9-L2H10 (bispecific antibody)
heavy 1: not shown
heavy 2: B2 heavy 2 with S286N, E330D, F332Y, D336E, G337A
light: B1 light
notes: Fab-scFv-Fab format with LALA mutations; copies: 1 + 1 + 2
B4: Bis-40E9-L5H7 (bispecific antibody)
heavy 1: not shown
heavy 2: B2 heavy 2 with Y285G, S286N, D287G, E330D, F332Y, Y333S, S462R, N464S
light: B1 light
notes: as for B3
B5: Bis-40E9-L2H6 (bispecific antibody)
heavy 1: not shown
heavy 2: B2 heavy 2 with S286N, Y333S
light: B1 light
notes: as for B2
B6: Bis-108+147-S32R.L (bispecific antibody)
heavy 1: not shown
heavy 2: B1 heavy 2 with R262S, S402R
light: B1 light
notes: Fab-scFv-Fab format
B7: Bis-40E9-L2H9 (bispecific antibody)
VH: EVQLVQSGAEVKKPGASVKVSCKASGYTFTSYVIHWVRQAPGQGLEWMGYFNPYNDGTKYNEEFKGRVTLTSDKSTSTAYMELRSLRSDDTAVYYCARGGVRRYFDVWGQGTTVTVSS
VL: DIQMTQSPSSLSASVGDRVTITCRASQDIGSNLNWLQQKPGKAIKRLIYATFGLDSGVPSRFSGSRSGTDFTLTISSLQPEDFATYYCQQYASFPYTFGGGTKVEIK
scFv: EVQLVQSGAEVKKPGSSVKVSCKASGYTFSSYVIHWVRQAPGQCLEWMGYINPYSDVIKYNEKFKGRVTLTSDKSTSTAYMELSSLRSEDTAVYYCARESFYSYDGFAYWGQGTLVTVSSGGGGSGGGGSGGGGSGGGGSEIVLTQSPDFQSVTPKEKVTITCSASSSVSYMHWYQQKPDQSPKRLIYDTSKLASGVPSRFSGSGSGTDFTLTINSLEAEDAATYYCQQWSSNPPTFGCGTKVEIK
notes: L234A/L235A
B8: Bis-40E9-L5H7 (bispecific antibody)
VH: B7 VH
VL: B7 VL
scFv: B7 scFv with Y54G, S55N, D56G, E99D, F101Y, Y102S, S231R, N233S
notes: L234A/L235A
B9: Bis-40E9-L2H10 (bispecific antibody)
VH: B7 VH
VL: B7 VL
scFv: B7 scFv with S55N, E99D, F101Y, D105E, G106A
notes: L234A/L235A
B10: Bis-40E9-L2H11 (bispecific antibody)
VH: B7 VH
VL: B7 VL
scFv: B7 scFv with S55N, E99D, F101Y, D105R, G106A
notes: L234A/L235A
B11: Bis-40E9-L2H16 (bispecific antibody)
VH: B7 VH
VL: B7 VL
scFv: B7 scFv with S31D, S55N, E99D, F101Y
notes: L234A/L235A

What was measured:
GPRC5D on MM.1S cells [1] = target: T1, GPRC5D on MM.1S cells (human, UniProt Q9NZD1 1-345); assay: cell-based or functional assay
T1 sequence (Q9NZD1 whole entry): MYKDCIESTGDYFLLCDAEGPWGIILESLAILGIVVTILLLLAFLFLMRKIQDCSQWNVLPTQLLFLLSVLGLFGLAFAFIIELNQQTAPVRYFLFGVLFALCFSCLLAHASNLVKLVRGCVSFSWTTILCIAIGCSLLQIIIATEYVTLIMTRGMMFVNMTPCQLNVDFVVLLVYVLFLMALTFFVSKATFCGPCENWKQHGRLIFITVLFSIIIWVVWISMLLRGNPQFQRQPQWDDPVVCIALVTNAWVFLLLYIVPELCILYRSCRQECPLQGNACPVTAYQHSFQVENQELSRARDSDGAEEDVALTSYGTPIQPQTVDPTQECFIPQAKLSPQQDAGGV

GPRC5D on MM.1S cells [2] = target: T1, GPRC5D on MM.1S cells; assay: cell-based or functional assay; remark: listed apart in the source
GPRC5D on MM.1S cells [3] = target: T1, GPRC5D on MM.1S cells; assay: FACS on MM.1S cells
Experimental: The binding affinities of the generated humanized Fab-scFv-Fab bispecific antibodies were determined by FACS analysis. […] (a) Jurkat cells were washed by Staining Buffer (PBS+1% BSA) in round bottom 96-well plate. [0833] (b) Antibody dilutions and cells were added to each well, incubated at 4 degrees for 1 hour. [0834] (c) Cells were spined down at 300 g for 3 minutes, and the supernatants were discarded. [0835] (d) Cells were washed with Staining Buffer. […] (e) Step (d) was repeated and the cells were incubated for 0.5 hours at 4 degrees with secondary antibody in Staining Buffer. [0837] (f) After incubation, step (d)-(e) were repeated. […] (g) Staining Buffer was added and fluorescence signals were recorded by flow cytometry.
The binding affinities of the generated humanized Fab-scFv-Fab bispecific antibodies were determined by FACS analysis. The ATG-Bis-40E9 was used as positive control and hIgG1 isotype was used as negative control. The protocol for FACS analysis is identical to that described in Example 3.2, except that MM.1S cells were used in this example.

GPRC5D on MM.1S cells [4] = target: T1, GPRC5D on MM.1S cells; assay: cell-based or functional assay; remark: listed apart in the source
GPRC5D on MM.1S cells [5] = target: T1, GPRC5D on MM.1S cells; assay: FACS on MM.1S cells; remark: listed apart in the source
Experimental: To evaluate the binding affinity of the generated chimeric bispecific antibody to T cells, the isolated CD3⁺ T cells were stained by antibodies and the binding affinity was determined by FACS analysis. The protocol of FACS analysis is described as follows: [0785] (a) CD3⁺ T cells were isolated from normal donors. [0786] (b) The isolated CD3⁺ T cells were washed by Staining Buffer (PBS+1% BSA) in round bottom 96-well plate. […] (c) Antibody dilutions were added to each well and mixed with the CD3+ T cells, incubated at 4 degrees for 1 hour. […] (d) Cells were spined at 300 g for 3 minutes, then the supernatants were discarded. [0789] (e) Cells were washed with Staining Buffer. [0790] (f) Step (d) was repeated, and the cells were incubated with secondary antibody in Staining Buffer for 0.5 hours at 4 degrees. [0791] (g) After incubation, step (d)-(e) were repeated. [0792] (h) Cells were resuspended in Staining Buffer and fluorescence signals were recorded by flow cytometry.
The binding affinities of the generated humanized Fab-scFv-Fab bispecific antibodies to MM.1S were evaluated by FACS analysis. The protocol for FACS analysis is identical to that described in Example 1.2, except that MM.1S were used in this example.

GPRC5D on MM.1S cells [6] = target: T1, GPRC5D on MM.1S cells; assay: cell-based or functional assay; remark: listed apart in the source
[7] = target: T2, GPRC5D on multiple myeloma cells (human, UniProt Q9NZD1 1-345); assay: FACS on MM.1S cells
T2 construct: whole, on cells; Endogenous GPRC5D on multiple myeloma cell lines; also called G-protein coupled receptor family C group 5 member D; MM.1S, MOLP-8, L363, RPMI8226 cells
T2 sequence (Q9NZD1 whole entry): as above

[8] = target: T3, CD3 on T cells / Jurkat cells (human, UniProt P07766 23-207; P04234 22-171; P09693 23-182); assay: FACS on Jurkat cells
T3 construct: whole, on cells; Native CD3 complex on CD3+ T cells isolated from normal donors or on Jurkat cells; also called human CD3; CD3+ T cells
T3 sequence (P07766 23-207, chain 1 of 3): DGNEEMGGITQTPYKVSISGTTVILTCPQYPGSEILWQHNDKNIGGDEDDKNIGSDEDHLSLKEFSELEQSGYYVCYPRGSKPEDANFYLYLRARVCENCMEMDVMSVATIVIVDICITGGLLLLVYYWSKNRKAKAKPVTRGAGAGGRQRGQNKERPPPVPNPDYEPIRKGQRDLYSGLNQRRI
T3 sequence (P04234 22-171, chain 2 of 3): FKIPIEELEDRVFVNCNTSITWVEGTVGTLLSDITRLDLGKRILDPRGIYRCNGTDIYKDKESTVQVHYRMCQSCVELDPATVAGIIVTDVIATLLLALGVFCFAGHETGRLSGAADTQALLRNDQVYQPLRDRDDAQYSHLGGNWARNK
T3 sequence (P09693 23-182, chain 3 of 3): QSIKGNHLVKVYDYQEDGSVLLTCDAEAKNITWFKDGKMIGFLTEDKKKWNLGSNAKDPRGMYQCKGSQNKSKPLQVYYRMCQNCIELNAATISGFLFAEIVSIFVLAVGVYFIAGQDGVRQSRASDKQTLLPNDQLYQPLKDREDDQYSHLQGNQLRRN

Row | Binder | Ratio of Top RLU (relative to ATG-Bis-40E9), luciferase assay on MM.1S (GPRC5D on MM.1S cells [4]) [ratio] | Ratio of EC50 (relative to ATG-Bis-40E9) (GPRC5D on MM.1S cells [5]) [ratio] | Ratio of Top MFI (relative to ATG-Bis-40E9) (GPRC5D on MM.1S cells [5]) [ratio] | Ratio of Top cytotoxicity (relative to ATG-Bis-40E9), MM.1S cytotoxicity (GPRC5D on MM.1S cells [6]) [ratio] | binding result [7] | binding result [8] | further results
1 | B1 | – | – | – | – | – | – | EC50, Jurkat-NFAT-Luciferase assay in the presence of MM.1S cells (GPRC5D on MM.1S cells [1]): 0.25 nM; Top RLU, Jurkat-NFAT-Luciferase assay in the presence of MM.1S cells (GPRC5D on MM.1S cells [1]): 334 RLU; IC50 of T-cell dependent cytotoxicity on MM.1S cells (GPRC5D on MM.1S cells [2]): 4.43 nM; Top (%) target cell killing, MM.1S cells (GPRC5D on MM.1S cells [2]): 159%; EC50 (GPRC5D on MM.1S cells [3]): 1.5 nM; Top signal (GPRC5D on MM.1S cells [3]): 2030 MFI
2 | B2 | 0.28 | 0.926 | 0.874 | 0.87 | – | – | Ratio of EC50 (relative to ATG-Bis-40E9), luciferase assay on MM.1S (GPRC5D on MM.1S cells [4]): 96.4 ratio; Ratio of IC50 (relative to ATG-Bis-40E9), MM.1S cytotoxicity (GPRC5D on MM.1S cells [6]): 87.7 ratio
3 | B3 | 0.71 | 1.15 | 1.02 | 0.96 | – | – | Ratio of EC50 (relative to ATG-Bis-40E9), luciferase assay on MM.1S (GPRC5D on MM.1S cells [4]): 10.2 ratio; Ratio of IC50 (relative to ATG-Bis-40E9), MM.1S cytotoxicity (GPRC5D on MM.1S cells [6]): 18.4 ratio
4 | B4 | 1.38 | 1.14 | 0.989 | 0.99 | – | – | Ratio of EC50 (relative to ATG-Bis-40E9), luciferase assay on MM.1S (GPRC5D on MM.1S cells [4]): 18 ratio; Ratio of IC50 (relative to ATG-Bis-40E9), MM.1S cytotoxicity (GPRC5D on MM.1S cells [6]): 9.82 ratio
5 | B5 | 0.04 | 0.824 | 0.877 | 0.06 | – | – | –
6 | B6 | – | – | – | – | – | – | EC50, Jurkat-NFAT-Luciferase assay in the presence of MM.1S cells (GPRC5D on MM.1S cells [1]): 0.32 nM; Top RLU, Jurkat-NFAT-Luciferase assay in the presence of MM.1S cells (GPRC5D on MM.1S cells [1]): 406 RLU; IC50 of T-cell dependent cytotoxicity on MM.1S cells (GPRC5D on MM.1S cells [2]): 0.54 nM; Top (%) target cell killing, MM.1S cells (GPRC5D on MM.1S cells [2]): 99%; EC50 (GPRC5D on MM.1S cells [3]): 1.76 nM; Top signal (GPRC5D on MM.1S cells [3]): 2050 MFI
7 | B7 | – | – | – | – | binds | binds | –
8 | B8 | – | – | – | – | binds | binds | –
9 | B9 | – | – | – | – | binds | binds | –
10 | B10 | – | – | – | – | binds | binds | –
11 | B11 | – | – | – | – | binds | binds | –
